{
  "source": "the Human Domainome abundance scans (Beltran et al. 2025)",
  "parents": {"B1": {"name": "Androgen receptor, residues 557 to 632; numbered along this chain, P10275 (parent)", "chain": "QKTCLICGDEASGCHYGALTCGSCKVFFKRAAEGKQKYLCASRNDCTIDKFRRKNCPSCRLRKCYEAGMTLGARKL"}},
  "note": "± gives the uncertainty stated by the source.",
  "data": [
    {"variants_of": "B1", "assay": "abundance fitness (aPCA) (normalised: wild type 0, dead -1); higher = more abundant; growth selection in yeast, the domain comes from the species named", "conditions": "Homo sapiens", "values": [
      {"variant": "QKTCLICGDEASGCHYGALTCGSCKVFFHRAAEGKQKYLCASRNDCTIDKFRRKNCPSCRLRKCYEAGMTLGARKL", "note": "[K29H]", "abundance fitness": "-0.024 ± 0.1"},
      {"variant": "QKTCLICGDEASGCHYGALTCGSCKVFFIRAAEGKQKYLCASRNDCTIDKFRRKNCPSCRLRKCYEAGMTLGARKL", "note": "[K29I]", "abundance fitness": "-0.353 ± 0.099"},
      {"variant": "QKTCLICGDEASGCHYGALTCGSCKVFFSRAAEGKQKYLCASRNDCTIDKFRRKNCPSCRLRKCYEAGMTLGARKL", "note": "[K29S]", "abundance fitness": "-0.248 ± 0.11"},
      {"variant": "QKTCLICGDEASGCHYGALTCGSCKVFFMRAAEGKQKYLCASRNDCTIDKFRRKNCPSCRLRKCYEAGMTLGARKL", "note": "[K29M]", "abundance fitness": "-0.245 ± 0.15"},
      {"variant": "QKTCLICGDEASGCHYGALTCGSCKVFFCRAAEGKQKYLCASRNDCTIDKFRRKNCPSCRLRKCYEAGMTLGARKL", "note": "[K29C]", "abundance fitness": "-0.49 ± 0.28"},
      {"variant": "QKTCLICGDEASGCHYGALTCGSCKVFFYRAAEGKQKYLCASRNDCTIDKFRRKNCPSCRLRKCYEAGMTLGARKL", "note": "[K29Y]", "abundance fitness": "-0.148 ± 0.14"},
      {"variant": "QKTCLICGDEASGCHYGALTCGSCKVFFQRAAEGKQKYLCASRNDCTIDKFRRKNCPSCRLRKCYEAGMTLGARKL", "note": "[K29Q]", "abundance fitness": "-0.169 ± 0.11"},
      {"variant": "QKTCLICGDEASGCHYGALTCGSCKVFFVRAAEGKQKYLCASRNDCTIDKFRRKNCPSCRLRKCYEAGMTLGARKL", "note": "[K29V]", "abundance fitness": "-0.215 ± 0.08"},
      {"variant": "QKTCLICGDEASGCHYGALTCGSCKVFFERAAEGKQKYLCASRNDCTIDKFRRKNCPSCRLRKCYEAGMTLGARKL", "note": "[K29E]", "abundance fitness": "0.202 ± 0.11"},
      {"variant": "QKTCLICGDEASGCHYGALTCGSCKVFFNRAAEGKQKYLCASRNDCTIDKFRRKNCPSCRLRKCYEAGMTLGARKL", "note": "[K29N]", "abundance fitness": "-0.123 ± 0.14"},
      {"variant": "QKTCLICGDEASGCHYGALTCGSCKVFFGRAAEGKQKYLCASRNDCTIDKFRRKNCPSCRLRKCYEAGMTLGARKL", "note": "[K29G]", "abundance fitness": "-0.039 ± 0.068"},
      {"variant": "QKTCLICGDEASGCHYGALTCGSCKVFFPRAAEGKQKYLCASRNDCTIDKFRRKNCPSCRLRKCYEAGMTLGARKL", "note": "[K29P]", "abundance fitness": "-0.377 ± 0.07"},
      {"variant": "QKTCLICGDEASGCHYGALTCGSCKVFFFRAAEGKQKYLCASRNDCTIDKFRRKNCPSCRLRKCYEAGMTLGARKL", "note": "[K29F]", "abundance fitness": "0.019 ± 0.24"},
      {"variant": "QKTCLICGDEASGCHYGALTCGSCKVFFLRAAEGKQKYLCASRNDCTIDKFRRKNCPSCRLRKCYEAGMTLGARKL", "note": "[K29L]", "abundance fitness": "-0.331 ± 0.086"},
      {"variant": "QKTCLICGDEASGCHYGALTCGSCKVFFRRAAEGKQKYLCASRNDCTIDKFRRKNCPSCRLRKCYEAGMTLGARKL", "note": "[K29R]", "abundance fitness": "-0.075 ± 0.057"},
      {"variant": "QKTCLICGDEASGCHYGALTCGSCKVFFDRAAEGKQKYLCASRNDCTIDKFRRKNCPSCRLRKCYEAGMTLGARKL", "note": "[K29D]", "abundance fitness": "-0.258 ± 0.2"},
      {"variant": "QKTCLICGDEASGCHYGALTCGSCKVFFWRAAEGKQKYLCASRNDCTIDKFRRKNCPSCRLRKCYEAGMTLGARKL", "note": "[K29W]", "abundance fitness": "0.035 ± 0.15"},
      {"variant": "QKTCLICGDEASGCHYGALTCGSCKVFFKAAAEGKQKYLCASRNDCTIDKFRRKNCPSCRLRKCYEAGMTLGARKL", "note": "[R30A]", "abundance fitness": "-0.094 ± 0.093"},
      {"variant": "QKTCLICGDEASGCHYGALTCGSCKVRFKRAAEGKQKYLCASRNDCTIDKFRRKNCPSCRLRKCYEAGMTLGARKL", "note": "[F27R]", "abundance fitness": "-0.977 ± 0.067"},
      {"variant": "QKTCLICGDEASGCHYGALTCGSCKVHFKRAAEGKQKYLCASRNDCTIDKFRRKNCPSCRLRKCYEAGMTLGARKL", "note": "[F27H]", "abundance fitness": "-0.805 ± 0.15"},
      {"variant": "QKTCLICGDEASGCHYGALTCGSCKVPFKRAAEGKQKYLCASRNDCTIDKFRRKNCPSCRLRKCYEAGMTLGARKL", "note": "[F27P]", "abundance fitness": "-0.655 ± 0.067"},
      {"variant": "QKTCLICGDEASGCHYGALTCGSCKVGFKRAAEGKQKYLCASRNDCTIDKFRRKNCPSCRLRKCYEAGMTLGARKL", "note": "[F27G]", "abundance fitness": "-0.884 ± 0.065"},
      {"variant": "QKTCLICGDEASGCHYGALTCGSCKVDFKRAAEGKQKYLCASRNDCTIDKFRRKNCPSCRLRKCYEAGMTLGARKL", "note": "[F27D]", "abundance fitness": "-0.519 ± 0.085"},
      {"variant": "QKTCLICGDEASGCHYGALTCGSCKVWFKRAAEGKQKYLCASRNDCTIDKFRRKNCPSCRLRKCYEAGMTLGARKL", "note": "[F27W]", "abundance fitness": "-0.387 ± 0.046"},
      {"variant": "QKTCLICGDEASGCHYGALTCGSCKVSFKRAAEGKQKYLCASRNDCTIDKFRRKNCPSCRLRKCYEAGMTLGARKL", "note": "[F27S]", "abundance fitness": "-0.983 ± 0.071"},
      {"variant": "QKTCLICGDEASGCHYGALTCGSCKVTFKRAAEGKQKYLCASRNDCTIDKFRRKNCPSCRLRKCYEAGMTLGARKL", "note": "[F27T]", "abundance fitness": "-0.91 ± 0.07"},
      {"variant": "QKTCLICGDEASGCHYGALTCGSCKVYFKRAAEGKQKYLCASRNDCTIDKFRRKNCPSCRLRKCYEAGMTLGARKL", "note": "[F27Y]", "abundance fitness": "-0.598 ± 0.068"},
      {"variant": "QKTCLICGDEASGCHYGALTCGSCKVEFKRAAEGKQKYLCASRNDCTIDKFRRKNCPSCRLRKCYEAGMTLGARKL", "note": "[F27E]", "abundance fitness": "-0.73 ± 0.07"},
      {"variant": "QKTCLICGDEASGCHYGALTCGSCKVQFKRAAEGKQKYLCASRNDCTIDKFRRKNCPSCRLRKCYEAGMTLGARKL", "note": "[F27Q]", "abundance fitness": "-0.839 ± 0.093"},
      {"variant": "QKTCLICGDEASGCHYGALTCGSCKVIFKRAAEGKQKYLCASRNDCTIDKFRRKNCPSCRLRKCYEAGMTLGARKL", "note": "[F27I]", "abundance fitness": "-0.548 ± 0.12"},
      {"variant": "QKTCLICGDEASGCHYGALTCGSCKVLFKRAAEGKQKYLCASRNDCTIDKFRRKNCPSCRLRKCYEAGMTLGARKL", "note": "[F27L]", "abundance fitness": "-0.766 ± 0.058"},
      {"variant": "QKTCLICGDEASGCHYGALTCGSCKVCFKRAAEGKQKYLCASRNDCTIDKFRRKNCPSCRLRKCYEAGMTLGARKL", "note": "[F27C]", "abundance fitness": "-0.833 ± 0.092"},
      {"variant": "QKTCLICGDEASGCHYGALTCGSCKVKFKRAAEGKQKYLCASRNDCTIDKFRRKNCPSCRLRKCYEAGMTLGARKL", "note": "[F27K]", "abundance fitness": "-0.816 ± 0.072"},
      {"variant": "QKTCLICGDEASGCHYGALTCGSCKVAFKRAAEGKQKYLCASRNDCTIDKFRRKNCPSCRLRKCYEAGMTLGARKL", "note": "[F27A]", "abundance fitness": "-0.729 ± 0.052"},
      {"variant": "QKTCLICGDEASGCHYGALTCGSCKVMFKRAAEGKQKYLCASRNDCTIDKFRRKNCPSCRLRKCYEAGMTLGARKL", "note": "[F27M]", "abundance fitness": "-1.01 ± 0.14"},
      {"variant": "QKTCLICGDEASGCHYGALTCGSCKWFFKRAAEGKQKYLCASRNDCTIDKFRRKNCPSCRLRKCYEAGMTLGARKL", "note": "[V26W]", "abundance fitness": "-0.181 ± 0.037"}
    ]}
  ]
}
